Measurements taken from patent US20190247480A1.

Molecular target: HLA-A3 (human)
Assay: assembly assay, stabilisation of HLA-A3 in T2-A3 lysates, W6/32 immunoprecipitation

RAGLQVRKNK [Rho1 (…), native RhoC-derived peptide] gave a C50 value (peptide concentration required for half maximal recovery of class I MHC molecules) of over 40.

In the case of RLGLQVRKNK [Rho1L2 (…), modified RhoC peptide with Leu at position 2], the C50 value (peptide concentration required for half maximal recovery of class I MHC molecules) is reported as 4.
